Reference: patent US20180030098A1 (NAVIGO PROTEINS, published 2018)

Target: T1, Recombinant human EGFR-Fc Chimera (R&D Systems, catalog no. 344-ER-050) (human, UniProt P00533 25-645)
T1 construct: range 1-645; Bought reagent; Immobilised on the CM5 chip for SPR; also called hEGFR-Fc; not shown: Fc region of human IgG1, fused at the C-terminus
Experiment: SPR (Biacore) on immobilised hEGFR-Fc

Kd: 615 nM
B1: Affilin 138838 (designed binder)
chain: MQIFVYTNTGKTITLEVEPSDTIENVKAKIQDKEGIPPDQQRLIWAGKQLEDGRTLSDYNIRNPDILHLVLRLRAAGIGMQIFVHTITGKTITLEVEPSDTIENVKAKIQDKEGIPPDQQRLIWAGKQLEDGRTLSDYNIEGERDLHLVLRLRAA
notes: Affilin of two ubiquitin moieties with PDI motif
